Results published in IntAct's records for PubMed 17157260.

B1: Protein YNG1 (Saccharomyces cerevisiae), Q08465 (parent)
chain: MEHLANENSDSDIRYSFLSTLDHLPCELIRSLRLMQTIDLFKNEEDEPGMERACRDLLLVATYINDLVDDQIHFLKQHKKELEIQKSVTKNFNSSLENIKSKLTLEEPGAYKEPKLLLKINLKKAKSRERKESITSPTIGINQGDVTEGNNNQEEVYCFCRNVSYGPMVACDNPACPFEWFHYGCVGLKQAPKGKWYCSKDCKEIANQRSKSKRQKRRK

Variants of: B1
Conditions: with h3_yeast HHT1, P61830

Row | effect of a mutation on the interaction | Variant
1 | decreasing interaction | MEHLANENSDSDIRYSFLSTLDHLPCELIRSLRLMQTIDLFKNEEDEPGMERACRDLLLVATYINDLVDDQIHFLKQHKKELEIQKSVTKNFNSSLENIKSKLTLEEPGAYKEPKLLLKINLKKAKSRERKESITSPTIGINQGDVTEGNNNQEEVYCFCRNVSYGPMVACDNPACPFEEFHYGCVGLKQAPKGKWYCSKDCKEIANQRSKSKRQKRRK [W180E]
